Key:
[1] = tested on: phage clone A29 (SEQ ID NO:27)
[2] = tested on: phage clone A9 (SEQ ID NO:19)
[3] = tested on: synthesized polypeptide A13 (SEQ ID NO:12)
[4] = tested on: phage clone B79 (SEQ ID NO:5)
[5] = tested on: phage clone A34 (SEQ ID NO:11)
[6] = tested on: synthesized polypeptide B37 (SEQ ID NO:13)
[7] = tested on: phage clone A45 (SEQ ID NO:25)
[8] = tested on: phage clone A21 (SEQ ID NO:17)
[9] = tested on: synthesized polypeptide A34 (SEQ ID NO:11)
[10] = tested on: phage clone B74 (SEQ ID NO:2)
[11] = tested on: synthesized polypeptide A21 (SEQ ID NO:17)
[12] = tested on: phage clone A3 (SEQ ID NO:24)
[13] = tested on: phage clone A54 (SEQ ID NO:3)
[14] = tested on: phage clone B53 (SEQ ID NO:15)
[15] = tested on: phage clone D3 (SEQ ID NO:23)
[16] = tested on: variants of three peptides synthesized to contain a Pro at P3
[17] = tested on: phage clone C6 (SEQ ID NO:22)
[18] = tested on: phage clone A54 (SEQ ID NO:4)
[19] = tested on: phage clone B49 (SEQ ID NO:1)
[20] = tested on: phage clone A43 (SEQ ID NO:8)
[21] = tested on: phage clone A13 (SEQ ID NO:12)
[22] = tested on: synthesized polypeptide B49 (SEQ ID NO:1)
[23] = tested on: phage clone C9 (SEQ ID NO:10)
[24] = tested on: phage clone B37 (SEQ ID NO:13)
[25] = tested on: phage clone C3 (SEQ ID NO:16)
[26] = tested on: phage clone A4 (SEQ ID NO:21)
[27] = tested on: synthesized polypeptide C9 (SEQ ID NO:10)
[28] = tested on: phage clone A21 (SEQ ID NO:20)
[29] = tested on: phage clone B66 (SEQ ID NO:6)
[30] = tested on: phage clone A31 (SEQ ID NO:14)
[31] = tested on: synthesized polypeptide B74 (SEQ ID NO:2)
[32] = tested on: phage clone A10 (SEQ ID NO:26)
[33] = tested on: phage clone C5 (SEQ ID NO:18)
[34] = tested on: phage clone A6 (SEQ ID NO:9), MMP-2 substrate
[35] = tested on: synthesized polypeptide A3 (SEQ ID NO:24)
[36] = tested on: phage clone B46 (SEQ ID NO:7)
[37] = tested on: synthesized polypeptide A6 (contains SEQ ID NO:30)
[38] = tested on: phage clone D24 (SEQ ID NO:33)
[39] = tested on: phage clone D12 (SEQ ID NO:31)
[40] = tested on: synthesized polypeptide C15 (contains SEQ ID NO:28)
[41] = tested on: phage clone D36 (SEQ ID NO:32)
[42] = tested on: mutant peptide A11m1
[43] = tested on: the peptides (MMP-9 substrate peptides of Example III)
[44] = tested on: phage clone C15 (SEQ ID NO:28)
[45] = tested on: phage clone A6 (SEQ ID NO:30), MMP-9 substrate
[46] = tested on: synthesized polypeptide A11 (contains SEQ ID NO:29)
[47] = tested on: phage clone A11 (SEQ ID NO:29)
[48] = tested on: mutant peptide A11m2 (AC-SGKIPRTATA-NH2, SEQ ID NO:126)
[49] = tested on: phage clone D5 (SEQ ID NO:34)
[50] = tested on: phage clone D17 (SEQ ID NO:35)

Sequence of MMP-9 (recombinant catalytic domain, APMA-activated) (chain, as listed by the source): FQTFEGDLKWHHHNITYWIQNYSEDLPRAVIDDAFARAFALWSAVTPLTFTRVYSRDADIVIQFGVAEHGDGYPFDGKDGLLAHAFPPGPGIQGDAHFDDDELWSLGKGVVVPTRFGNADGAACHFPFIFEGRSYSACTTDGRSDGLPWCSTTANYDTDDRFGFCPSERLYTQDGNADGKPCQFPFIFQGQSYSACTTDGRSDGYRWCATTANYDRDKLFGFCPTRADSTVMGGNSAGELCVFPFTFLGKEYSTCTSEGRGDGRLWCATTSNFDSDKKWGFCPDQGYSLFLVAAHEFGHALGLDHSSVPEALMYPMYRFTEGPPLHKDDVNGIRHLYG
Sequence of MMP-2 (recombinant catalytic domain, APMA-activated) (chain, as listed by the source): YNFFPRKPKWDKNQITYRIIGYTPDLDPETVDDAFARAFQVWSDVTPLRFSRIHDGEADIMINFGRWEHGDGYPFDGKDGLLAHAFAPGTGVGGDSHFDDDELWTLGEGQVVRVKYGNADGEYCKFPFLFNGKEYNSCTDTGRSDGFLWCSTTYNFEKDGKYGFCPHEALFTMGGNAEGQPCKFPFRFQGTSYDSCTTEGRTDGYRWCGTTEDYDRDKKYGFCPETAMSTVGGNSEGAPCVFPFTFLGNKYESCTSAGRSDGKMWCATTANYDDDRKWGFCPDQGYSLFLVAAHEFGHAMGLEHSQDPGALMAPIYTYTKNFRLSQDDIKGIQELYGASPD

MMP-2 (recombinant catalytic domain, APMA-activated)
% hydrolysis (substrate phage ELISA) [1]: 100%
% hydrolysis (substrate phage ELISA) [2]: 50%
selectivity ratio: kcat/Km for MMP-2 divided by kcat/Km for MMP-7 [3]: 13
selectivity ratio: kcat/Km for MMP-2 divided by kcat/Km for MMP-9 [3]: 15
selectivity ratio: kcat/Km for MMP-2 divided by kcat/Km for MMP-13 [3]: 28
% hydrolysis (substrate phage ELISA) [4]: 64%
% hydrolysis (substrate phage ELISA) [5]: 100%
selectivity ratio: kcat/Km for MMP-2 divided by kcat/Km for MMP-7 [6]: 17
selectivity ratio: kcat/Km for MMP-2 divided by kcat/Km for MMP-9 [6]: 71
selectivity ratio: kcat/Km for MMP-2 divided by kcat/Km for MMP-13 [6]: 58
% hydrolysis (substrate phage ELISA) [7]: 100%
% hydrolysis (substrate phage ELISA) [8]: 30%
selectivity ratio: kcat/Km for MMP-2 divided by kcat/Km for MMP-7 [9]: 84
selectivity ratio: kcat/Km for MMP-2 divided by kcat/Km for MMP-9 [9]: 40
selectivity ratio: kcat/Km for MMP-2 divided by kcat/Km for MMP-13 [9]: 24
% hydrolysis (substrate phage ELISA) [10]: 81%
selectivity ratio: kcat/Km for MMP-2 divided by kcat/Km for MMP-9 [11]: 8
% hydrolysis (substrate phage ELISA) [12]: 100%
% hydrolysis (substrate phage ELISA) [13]: 98%
% hydrolysis (substrate phage ELISA) [14]: 73%
% hydrolysis (substrate phage ELISA) [15]: 13%
peptide hydrolysis (kcat/Km), compared with MMP-9 [16]: the proline-containing peptides remained better substrates for MMP-2 (data not shown)
% hydrolysis (substrate phage ELISA) [17]: 19%
% hydrolysis (substrate phage ELISA) [18]: 72%
% hydrolysis (substrate phage ELISA) [19]: 100%
% hydrolysis (substrate phage ELISA) [20]: 38%
% hydrolysis (substrate phage ELISA) [21]: 100%
selectivity ratio: kcat/Km for MMP-2 divided by kcat/Km for MMP-7 [22]: 6
selectivity ratio: kcat/Km for MMP-2 divided by kcat/Km for MMP-9 [22]: 14
selectivity ratio: kcat/Km for MMP-2 divided by kcat/Km for MMP-13 [22]: 13
% hydrolysis (substrate phage ELISA) [23]: 100%
% hydrolysis (substrate phage ELISA) [24]: 97%
% hydrolysis (substrate phage ELISA) [25]: 28%
% hydrolysis (substrate phage ELISA) [26]: 30%
selectivity ratio: kcat/Km for MMP-2 divided by kcat/Km for MMP-7 [27]: 35
selectivity ratio: kcat/Km for MMP-2 divided by kcat/Km for MMP-9 [27]: 198
selectivity ratio: kcat/Km for MMP-2 divided by kcat/Km for MMP-13 [27]: 52
% hydrolysis (substrate phage ELISA) [28]: 30%
% hydrolysis (substrate phage ELISA) [29]: 51%
% hydrolysis (substrate phage ELISA) [30]: 100%
selectivity ratio: kcat/Km for MMP-2 divided by kcat/Km for MMP-7 [31]: 354
selectivity ratio: kcat/Km for MMP-2 divided by kcat/Km for MMP-9 [31]: 108
selectivity ratio: kcat/Km for MMP-2 divided by kcat/Km for MMP-13 [31]: 140
% hydrolysis (substrate phage ELISA) [32]: 80%
% hydrolysis (substrate phage ELISA) [33]: 60%
% hydrolysis (substrate phage ELISA) [34]: 30%
selectivity ratio: kcat/Km for MMP-2 divided by kcat/Km for MMP-7 [35]: 21
selectivity ratio: kcat/Km for MMP-2 divided by kcat/Km for MMP-9 [35]: 2
selectivity ratio: kcat/Km for MMP-2 divided by kcat/Km for MMP-13 [35]: 14
% hydrolysis (substrate phage ELISA) [36]: 48%

MMP-9 (recombinant catalytic domain, APMA-activated)
selectivity ratio: kcat/Km for MMP-9 divided by kcat/Km for MMP-7 [37]: 47
selectivity ratio: kcat/Km for MMP-9 divided by kcat/Km for MMP-13 [37]: 5
% hydrolysis (substrate phage ELISA) [38]: 85%
% hydrolysis (substrate phage ELISA) [39]: 100%
selectivity ratio: kcat/Km for MMP-9 divided by kcat/Km for MMP-7 [40]: 14
selectivity ratio: kcat/Km for MMP-9 divided by kcat/Km for MMP-13 [40]: 12
% hydrolysis (substrate phage ELISA) [41]: 91%
kcat/Km relative to the parent peptide A11 [42]: 2 fold
fold increase of the kcat/Km ratio on inclusion of Pro at P3 [16]: increased the kcat/Km ratio for MMP-9 between three and eleven-fold
Km (Michaelis constant) [43]: Km values were generally in the high micromolar to low millimolar range
kcat (first-order rate constant of substrate peptide turnover) [43]: the kcat values ranged from 9 s^-1 to 703 s^-1
kcat/Km ratio for MMP-9 over that for MMP-7 or MMP-13 [43]: The kcat/Km ratios ranged from 2.6 to 47 fold higher for MMP-9 than for either MMP-7 or MMP-13
% hydrolysis (substrate phage ELISA) [44]: 100%
% hydrolysis (substrate phage ELISA) [45]: 100%
selectivity ratio: kcat/Km for MMP-9 divided by kcat/Km for MMP-7 [46]: 10
selectivity ratio: kcat/Km for MMP-9 divided by kcat/Km for MMP-13 [46]: 3
% hydrolysis (substrate phage ELISA) [47]: 100%
fold reduction of kcat/Km relative to peptide A11 [48]: reduced kcat/Km ratio nearly 30-fold
kcat/Km ratio [48]: measurable kcat/Km ratio (2,000M^-1s^-1)
% hydrolysis (substrate phage ELISA) [49]: 60%
% hydrolysis (substrate phage ELISA) [50]: 67%

Source: patent publication US20040053823
